Reference: patent US20260125476A1 (INTERVET, published 2026)
Where a chain is given by its changes, count along the chain named. Read-outs that look alike come from different tables or passages of the source. Each block holds one binder with its values, some of them ahead of it.

Assays:
[1] = molecular target: T1, canine CTLA-4 (cCTLA-4) recombinant protein (canine, UniProt Q9XSI1 38-161, limits assumed); experiment: blocking ELISA: cCTLA-4 coated at 200 ng/well, antibody dilutions mixed with 100 ng/well biotinylated canine CD86 (the blocked ligand), streptavidin-HRP, OD450/540 (Example 4)
T1 construct: also called canine Cytotoxic T-Lymphocyte-Associated protein 4; CD152
T1 chain: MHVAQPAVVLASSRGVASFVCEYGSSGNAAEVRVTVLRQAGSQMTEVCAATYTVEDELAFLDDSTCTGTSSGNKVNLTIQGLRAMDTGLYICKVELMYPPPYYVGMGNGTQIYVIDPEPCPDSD
Experimental: (§1) Coat 200 ng/well cCTLA-4 in an immunoplate and incubate the plate at 4° C. overnight. […] Wash the plate 3 times by PBS with 0.05% Tween 20 (PBST). […] Block the plate with 0.5% BSA in PBS for 45-60 min at room temperature. […] Wash the plate 3 times by PBST. […] Next mixed with the antibodies. […] Transferred the mixture into each column or row of the immunoplate, and incubated the plate for 45-60 min at room temperature. […] Washed the plate 3 times with PBST. […] Added 1:2000 diluted horseradish peroxidase conjugated streptavidin into each well of the plate, and incubated the plate for 45-60 min at room temperature. […] Washed the plate 3 times with PBST. […] Added the TMB Substrate into each well of the plate, and incubated the plate for 10 to 15 minutes at room temperature to allow for color development. […] Added 100 μL of 1.5 M phosphoric acid into each well to stop the reaction. […] Read the plate at 450 nm with 540 nm reference wavelength.

[2] = molecular target: T2, canine CTLA-4 expressed on CHO-K1 cells (canine, UniProt Q9XSI1 38-223); experiment: flow cytometry on CHO-K1 cells stably expressing cCTLA-4, labelled anti-canine IgG, FL4-H histogram (Example 5); antibody concentration not given
T2 construct: also called CHO-cCTLA-4; CHO-K1-cCTLA-4 cells
T2 chain: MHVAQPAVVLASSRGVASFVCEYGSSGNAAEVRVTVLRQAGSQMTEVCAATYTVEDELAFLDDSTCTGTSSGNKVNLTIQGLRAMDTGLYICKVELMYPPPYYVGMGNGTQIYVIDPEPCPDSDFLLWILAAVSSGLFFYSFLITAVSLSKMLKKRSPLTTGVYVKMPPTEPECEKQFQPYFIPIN

[3] = molecular target: T1, canine CTLA-4 (cCTLA-4) recombinant …; experiment: ELISA: cCTLA-4 coated at 200 ng/well, three-fold antibody dilutions, HRP anti-canine IgG Fc, OD450/540 (Example 3)
[4] = molecular target: T1, canine CTLA-4 (cCTLA-4) recombinant …; experiment: blocking ELISA: cCTLA-4 coated at 200 ng/well, antibody dilutions mixed with 100 ng/well biotinylated canine CD80 (the blocked ligand), streptavidin-HRP, OD450/540 (Example 4)
Experimental: as §1

[5] = molecular target: T1, canine CTLA-4 (cCTLA-4) recombinant …; experiment: ELISA on coated cCTLA-4, OD450/540 ('xCTLA4 ELISA', Example 7)
[6] = molecular target: T2, canine CTLA-4 expressed on CHO-K1 cells; experiment: flow cytometry on CHO-K1 cells stably expressing cCTLA-4, labelled anti-canine IgG, FL4-H histogram (Example 5); antibody concentration not given
[7] = molecular target: T2, canine CTLA-4 expressed on CHO-K1 cells; experiment: as above
Text: (§2) A CHO-K1 cell line stably expressing cCTLA-4 was generated. The cells were used to test antibody binding and blocking activity in FACS flow assay. […] Grew CHO-K1-cCTLA-4 cells in the culture medium in T-75 flask. The cells are passaged when the cell confluency reaches to 90%. […] Detached the cells by Trypsin-EDTA solution, resuspended the cells in culture medium, and counted the viable cells with more than 95% viability. […] Spun down the cells, aspirated the supernatant, then resuspended the cells into FACS buffer (Thermo Fisher Scientific, Cat #BDB554656) to 1×10⁷ cells/mL. […] Added antibody into 100 μL of the cells, incubated at room temperature for 30 min with gentle shaking. […] Washed the cells by 3×250 μL of FACS buffer, and resuspended the cells into 100 μL FACS buffer. […] Stained the cells with FITC conjugated anti-canine IgG, incubated at room temperature for 30 min with gentle shaking. […] Washed the cells with 3×250 μL of FACS buffer and resuspended the cells into 500 μL FACS buffer. […] Read 10,000 cells by flow cytometry.

[8] = molecular target: T2, canine CTLA-4 expressed on CHO-K1 cells; experiment: as above
Text: as §2

IC50 (read off the curve) [1]: ~300 ng/mL | binding result [2]: binds | EC50 (read off the curve) [3]: ~0.7 ng/mL | IC50 (read off the curve) [4]: ~200 ng/mL
B1: Mouse-canine chimeric antibody 22A11 (antibody, V domains shown)
VH: QVQLQQPGTELVKPGASVKLSCKASGYTFTSYWMHWVKQRPGQGLEWIGNINPSNGGTRFNEKFKNKATLTEDKSSSTAYMQLSSLTSEDSAVYYCARSNYGSGWAWFAYWGQGTLVTVSA
VL: DIQMNQSPSSLSASLGDTITITCHASQNINVWLSWYQQKPGNIPKLLIYKSSNLHTGVPSRFSGSGSGTGFTLTISSLQPEDIATYYCQQGQSYPWTFGGGTKLEIKR
notes: Mouse variable regions fused to canine constant heavy chain and canine kappa; HEK 293, protein A

EC50 (read off the curve) [5]: ~4 ng/mL
B2: Caninized c39A11L3H3 (antibody, V domains shown)
VH: EVKLVESGGDLVKPGGSLRLSCATSGFTFSDYYMSWVRQAPGKALEWMGFIRNKANGYTTEYSASLKGRFTISRDNAKNMLYLQMNSLRAEDTAVYYCVRFGLMYYFDYWGQGTTLTVSS
VL: ENVLTQSPASLSLSPGEKVTITCRASSSVSSSYLHWYQQKPGQSPKLWIFSTSNLASGVPSRFSGSGSGTSYSFTISSLEPEDVAVYYCQQYSGLPLTFGGGTKLELKR
notes: also called caninized 39A11 VL3/VH3

EC50 (read off the curve) [5]: ~7 ng/mL
B3: Caninized c39A11L2H3 (antibody, V domains shown)
VH: B2 VH
VL: B2 VL with P15Q, G16E, S44A, S71D
notes: written here as L2H3; also called caninized 39A11

binding result [6]: binds | IC50 (read off the curve) [1]: ~100 ng/mL | EC50 (read off the curve) [3]: ~2 ng/mL | IC50 (read off the curve) [4]: ~200 ng/mL
B4: Mouse-canine chimeric antibody 27G12 (antibody, V domains shown)
VH: QIQLVQSGPELKKPGETVKISCKASGYTFTTYGVSWVKQAPGKGLRWMGWINTYSGMPTYVDDFKGRFAFSLETSASTAFLQINNLKNEDTAIYFCARRGISFDYWGQGTTLTVSS
VL: DVLMTQTPLSLPVSLGDHASISCKSSQSIVYINGNTYLEWYLQKPGQSPKLLIYKVSKRFSGVPDRFSGSGSGTDFTLKISRVEAEDLGVYYCFQGSHVPWTFGGGTKLEIKR
notes: as for B1

binding result [7]: binds | IC50 (read off the curve) [1]: ~100 ng/mL | EC50 (read off the curve) [3]: ~5 ng/mL | EC50 (read off the curve) [5]: ~1 ng/mL | IC50 (read off the curve) [4]: ~100 ng/mL
B5: Mouse-canine chimeric antibody 12B3 (antibody, V domains shown)
VH: QIQLVQSGPELKKPGETVKISCKASGYTFTNYGMNWVKQAPGKGLKWMGWINTYTGEPTYADDFKGRFAFSLETSASTAYLQINNLKNEDMATYFCARRSIYYPYWGQGTTLTVSS
VL: B4 VL with H18Q, K24R, I32S, K58N
notes: expressed in HEK 293 cells, purified on protein A; also called chimera of 12B3

IC50 (read off the curve) [1]: ~100 ng/mL | EC50 (read off the curve) [3]: ~2 ng/mL | binding result [8]: binds | IC50 (read off the curve) [4]: ~200 ng/mL
B6: Mouse-canine chimeric antibody 110E3 (antibody, V domains shown)
VH: B5 VH with F68V, Y80F, M91T, S100G, I101V, Y102R, Y103L, P104D
VL: B4 VL with H18Q, K24R, N33S, N35S, K58S
notes: as for B1

IC50 (read off the curve) [1]: ~100 ng/mL | EC50 (read off the curve) [3]: ~2 ng/mL | IC50 (read off the curve) [4]: ~200 ng/mL
B7: Mouse-canine chimeric antibody 45A9 (antibody, V domains shown)
VH: B5 VH with M91T, S100G, I101T, P104R, Y105P
VL: B4 VL with H18Q, K24R, I32S, N33H, L51V, K58N
notes: as for B1

IC50 (read off the curve) [1]: ~100 ng/mL | EC50 (read off the curve) [3]: ~9 ng/mL | EC50 (read off the curve) [5]: ~4 ng/mL | IC50 (read off the curve) [4]: ~200 ng/mL
B8: Mouse-canine chimeric antibody 39A11 (antibody, V domains shown)
VH: EVKLVESGGGLVQPGGSLSLSCATSGFTFSDYYMSWVRQSPGKALEWMGFIRNKANGYTTEYSASLKGRFTISRDNSQSILYLQMNVLRAEDSATYYCVRFGLMYYFDYWGQGTTLTVSS
VL: ENVLIQSPAIMSASPGEKVTMTCRASSSVSSSYLHWYQQKSGASPKLWIFSTSNLASGVPARFSGSGSGTSYSLTINSVEAEDAATYYCQQYSGLPLTFGGGTKLEIKR
notes: Mouse variable regions fused to canine constant heavy chain and canine kappa; HEK 293, protein A; also called chimera of 39A11

EC50 (read off the curve) [5]: ~2 ng/mL
B9: Caninized c12B3L3H3 (antibody, V domains shown)
VH: EIQLVQSGGDLVKPGGSVRLSCKASGYTFTNYGMNWVKQAPGKGLQWMGWINTYTGEPTYADDFKGRFTFSLDNAKNTAYLQINSLRAEDTAVYFCARRSIYYPYWGQGTTLTVSS
VL: DVLMTQTPLSLSVSPGEPASISCRSSQSIVYSNGNTYLEWYLQKPGQSPKLLIYKVSNRFSGVPDRFSGSGSGTDFTLRISRVEADDAGVYYCFQGSHVPWTFGGGTKLELKR
notes: also called caninized 12B3 VL3/VH3

EC50 (read off the curve) [5]: ~2 ng/mL
B10: Caninized c12B3L2H3 (antibody, V domains shown)
VH: B9 VH
VL: B9 VL with V2I, L3V, L42Q, L111I
notes: also called caninized 12B3
